Experimental findings from US20230044380A1 are described below.

The assay deals with T1, CD70 (UniProt P32970).
T1 sequence (looked up): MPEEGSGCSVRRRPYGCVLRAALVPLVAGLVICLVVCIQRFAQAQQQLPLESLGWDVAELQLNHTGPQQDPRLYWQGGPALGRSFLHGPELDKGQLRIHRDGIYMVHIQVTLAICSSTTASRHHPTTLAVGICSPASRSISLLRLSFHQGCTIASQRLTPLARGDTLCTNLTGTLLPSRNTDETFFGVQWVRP
The assay can be described thus: cell-based or functional assay.

B1: CD27.Z (CD70 CAR) (protein)
chain: ATPAPKSCPERHYWAQGKLCCQMCEPGTFLVKDCDQHRKAAQCDPCIPGVSFSPDHHTRPHCESCRHCNSGLLVRNCTITANAECACRNGWQCRDKECTECDPLPNPSLTARSSQALSPHPQPTHLPYVSEMLEARTAGHMQTLADFRQLPARTLSTHWPPQRSLCSSDFIRILVIFSGMFLVFTLAGALFLHQRRKYRSNKGESPVEPAEPCRYSCPREEEGSTIPIQEDYRKPEPACSPRVKFSRSADAPAYQQGQNQLYNELNLGRREEYDVLDKRRGRDPEMGGKPRRKNPQEGLYNELQKDKMAEAYSEIGMKGERRRGKGHDGLYQGLSTATKDTYDALHMQALPPR
In the case of B1, the percentage of CD107a positive T cells in CD8 positive T cells; CD27 CAR + LACO (A40C.28) T cells stimulated by 786-O (CD70 + + +) was 27.3%, the percentage of CD107a positive T cells in CD8 positive T cells; CD27 CAR + LACO (A40C.28) T cells stimulated by A498-CBG (CD70 + + +) is 22.7%, the percentage of CD107a positive T cells in CD8 positive T cells; CD27 CAR + LACO (A40C.28) T cells stimulated by A549-CBG (CD70 +) amounted to 3.3% and the percentage of CD107a positive T cells in CD8 positive T cells; CD27 CAR + LACO (A40C.28) T cells stimulated by HS766T-CBG (CD70 +) came out at 9.7%. The percentage of CD107a positive T cells in CD8 positive T cells; CD27 CAR + LACO (A40C.28) T cells stimulated by Jeko-1-CBG (CD70 + + +) worked out at 34.4%, the percentage of CD107a positive T cells in CD8 positive T cells; CD27 CAR + LACO (A40C.28) T cells stimulated by OVCAR3 (CD70 +) was 6.9%, the percentage of CD107a positive T cells in CD8 positive T cells; CD27 CAR + LACO (A40C.28) T cells stimulated by PC3-CBG (CD70 + +) turned out to be 15.9% and the percentage of CD107a positive T cells in CD8 positive T cells; CD27 CAR + LACO (A40C.28) T cells stimulated by Raji-CBG (CD70 + + +) was found to be 30.3%. Besides, the percentage of CD107a positive T cells in CD8 positive T cells; CD27 CAR + LACO (A40C.28) T cells stimulated by SKOV3-CBG (CD70 +) came out at 3.3%, the percentage of CD107a positive T cells in CD8 positive T cells; CD27 CAR + LACO (A40C.28) T cells stimulated by THP1 (CD70 + +) amounted to 22.2%, the percentage of CD107a positive T cells in CD8 positive T cells; CD27 CAR + LACO (A40C.28) T cells stimulated by U87-CBG (CD70 + + +) is 32% and the percentage of CD107a positive T cells in CD8 positive T cells; CD27 CAR + LACO (A40C.28) T cells stimulated by U937 (CD70 + +) worked out at 9%. The percentage of CD107a positive T cells in CD8 positive T cells; CD27 CAR T cells stimulated by 786-O (CD70 + + +) stood at 27.6%, the percentage of CD107a positive T cells in CD8 positive T cells; CD27 CAR T cells stimulated by A498-CBG (CD70 + + +) is 30.8%, the percentage of CD107a positive T cells in CD8 positive T cells; CD27 CAR T cells stimulated by A549-CBG (CD70 +) is 4.4% and the percentage of CD107a positive T cells in CD8 positive T cells; CD27 CAR T cells stimulated by HS766T-CBG (CD70 +) is 15%. Moreover, the percentage of CD107a positive T cells in CD8 positive T cells; CD27 CAR T cells stimulated by Jeko-1-CBG (CD70 + + +) was found to be 23.1%, the percentage of CD107a positive T cells in CD8 positive T cells; CD27 CAR T cells stimulated by OVCAR3 (CD70 +) was determined as 8.8%, the percentage of CD107a positive T cells in CD8 positive T cells; CD27 CAR T cells stimulated by PC3-CBG (CD70 + +) worked out at 16% and the percentage of CD107a positive T cells in CD8 positive T cells; CD27 CAR T cells stimulated by Raji-CBG (CD70 + + +) stood at 29.9%. For the same molecule, the percentage of CD107a positive T cells in CD8 positive T cells; CD27 CAR T cells stimulated by SKOV3-CBG (CD70 +) was 3.2%, the percentage of CD107a positive T cells in CD8 positive T cells; CD27 CAR T cells stimulated by THP1 (CD70 + +) came to 20.2%, the percentage of CD107a positive T cells in CD8 positive T cells; CD27 CAR T cells stimulated by U87-CBG (CD70 + + +) came out at 37.8% and the percentage of CD107a positive T cells in CD8 positive T cells; CD27 CAR T cells stimulated by U937 (CD70 + +) is 7.1%.
